From PMC2791397

Molecular target: GST-Hmt1p (S. cerevisiae) (UniProt P38074)
Sequence (P38074 whole entry): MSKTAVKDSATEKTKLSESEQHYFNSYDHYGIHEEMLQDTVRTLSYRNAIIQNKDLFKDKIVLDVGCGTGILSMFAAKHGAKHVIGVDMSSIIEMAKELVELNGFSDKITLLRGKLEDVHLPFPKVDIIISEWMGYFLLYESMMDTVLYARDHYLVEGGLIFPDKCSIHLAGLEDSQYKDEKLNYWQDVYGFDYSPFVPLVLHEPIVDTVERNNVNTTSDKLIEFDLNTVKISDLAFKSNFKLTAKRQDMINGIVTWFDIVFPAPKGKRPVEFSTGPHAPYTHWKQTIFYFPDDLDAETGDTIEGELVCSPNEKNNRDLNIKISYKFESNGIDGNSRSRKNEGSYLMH

synthetic histone H4 peptide (residues 1-18) with acetyllysine at position 8 (from UniProt P02309 2-19)
KM of Hmt1p-catalysed methylation of the H4 peptide (3H-SAM, Hanes/Wolffe plot): 0.059 µM
